# Test results reported in article PMC12724217.
# How the values were obtained:
# [1] = molecular target: human chromosomal region maintenance 1 (CRM1) (UniProt O14980); assay: two-hybrid
# [2] = molecular target: human chromosomal region maintenance 1 (CRM1) (UniProt O14980); assay: mammalian two-hybrid (CheckMate system) luciferase assay; settings: HEK-293 cells, 100 ng pG5luc reporter plasmid, 96 hours transfection, read off a plot; for percent of parent: parent: est. 100
Substance,percent of parent [2],response (fold induction) ([2]; parent: est. 5.7),other results
DHOV M L122A (natural protein),,,firefly luciferase signal as percent of WT M [1]: < 70 % of WT M
Dhori virus (DHOV) matrix protein (M) I121S; L122S,90 % of WT M,,response (fold induction) ([2]; parent: est. 5.2): 4.7
Dhori virus (DHOV) matrix protein (M) L116S,92 % of WT M,5.3,
Dhori virus (DHOV) matrix protein (M) I127S,,14,
DHOV M I121S (natural protein),,,reduction of the firefly luciferase signal relative to WT M [1]: > 10%
DHOV M I121A (natural protein),,,reduction of the firefly luciferase signal relative to WT M [1]: > 10%
Dhori virus (DHOV) matrix protein (M) V115A,110 % of WT M,6,
Dhori virus (DHOV) matrix protein (M) V115A; L116A; M119A; L120A; I121A; L122A; I127A,27 % of WT M,,response (fold induction) ([2]; parent: est. 5.2): 1.4
DHOV M L122S (natural protein),,,firefly luciferase signal as percent of WT M [1]: < 70 % of WT M
Dhori virus (DHOV) matrix protein (M) M119S,130 % of WT M,7.3,
Dhori virus (DHOV) matrix protein (M) I127A,,11,
Dhori virus (DHOV) matrix protein (M) L120A,130 % of WT M,7.6,
Dhori virus (DHOV) matrix protein (M) V115S,110 % of WT M,6.2,
Dhori virus (DHOV) matrix protein (M) M119A,100 % of WT M,5.8,
Dhori virus (DHOV) matrix protein (M) I121A; L122A,86 % of WT M,,response (fold induction) ([2]; parent: est. 5.2): 4.5
Dhori virus (DHOV) matrix protein (M) V115G; L116G; M119G; L120G; I121G; L122G; I127G,27 % of WT M,,response (fold induction) ([2]; parent: est. 5.2): 1.4
Dhori virus (DHOV) matrix protein (M) L120S,140 % of WT M,7.7,
Dhori virus (DHOV) matrix protein (M) V115R; L116R; M119R; L120R; I121R; L122R; I127R,27 % of WT M,,response (fold induction) ([2]; parent: est. 5.2): 1.4
Dhori virus (DHOV) matrix protein (M) L116A,74 % of WT M,4.2,
